According to patent publication US20100323969 (published 2010):
Ends that are not written are not given here. * marks the point of attachment. Galloyl = O=C(c1cc(O)c(O)c(O)c1)*

Target: T1, human P-selectin IgG-Fc chimera (human, UniProt P16109)
T1 chain: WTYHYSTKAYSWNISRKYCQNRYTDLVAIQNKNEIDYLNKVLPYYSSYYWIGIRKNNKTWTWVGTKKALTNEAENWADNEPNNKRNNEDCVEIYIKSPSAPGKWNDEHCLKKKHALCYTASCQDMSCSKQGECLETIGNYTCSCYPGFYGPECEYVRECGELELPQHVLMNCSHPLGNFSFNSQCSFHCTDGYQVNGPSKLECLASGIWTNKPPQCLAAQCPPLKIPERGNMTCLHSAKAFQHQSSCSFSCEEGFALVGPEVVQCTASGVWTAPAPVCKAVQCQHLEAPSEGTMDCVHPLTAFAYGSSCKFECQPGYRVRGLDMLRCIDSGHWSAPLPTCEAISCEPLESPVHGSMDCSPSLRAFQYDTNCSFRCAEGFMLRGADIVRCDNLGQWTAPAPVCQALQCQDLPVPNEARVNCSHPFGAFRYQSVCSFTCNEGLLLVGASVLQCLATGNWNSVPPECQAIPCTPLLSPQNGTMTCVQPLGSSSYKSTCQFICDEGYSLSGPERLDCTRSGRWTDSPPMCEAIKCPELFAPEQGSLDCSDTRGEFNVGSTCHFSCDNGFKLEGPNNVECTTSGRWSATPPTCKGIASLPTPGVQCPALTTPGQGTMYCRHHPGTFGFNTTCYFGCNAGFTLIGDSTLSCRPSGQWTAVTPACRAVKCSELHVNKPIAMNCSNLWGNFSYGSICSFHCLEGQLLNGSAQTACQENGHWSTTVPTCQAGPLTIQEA
Assay: competition ELISA

Question: For Galloyl-WVDV [Compound 12 (GA-WVDV)], which IC50 is on record?
Answer: 0.0371 µM

Target: T1, human P-selectin IgG-Fc chimera
Assay: competition ELISA
Remark: another data set of the same source

Question: Which IC50 does the source give for EWVDV [A29] here?
Answer: 8 µM

Question: How did the IC50 turn out when Galloyl-EWVDV [Compound 13 (GA-EWVDV)] was run?
Answer: 0.031 µM

Question: With CDVEWVDVSSLEWDLPC [TM11] as the binder, how does the IC50 read?
Answer: 2 µM

Question: With AWVDV [A131] as the binder, how does the IC50 read?
Answer: 27 µM

Question: Which IC50 does the source give for DWVDV [A129] here?
Answer: 16 µM

Question: For Galloyl-WVDV [Compound 12 (GA-WVDV)], which IC50 is on record?
Answer: 0.037 µM

Question: With KWVDV [A130] as the binder, how does the IC50 read?
Answer: 28 µM
